The source of these data is publication doi:10.1101/2021.12.02.470928.

Where only a bound is given, the exact number is not on record here.

Holding throughout (assay): BLI
Test [1] addresses biotinylated MYC(1-88 F23A).
Test [2] addresses biotinylated MYC(1-88ΔMB0) (UniProt P01106).
In test [3] the target is biotinylated MYC(1-88 P21A).
In test [4] the target is biotinylated MYC(1-88 Y24A).
The target of test [5] is biotinyl-MB0 peptide (MYC 16-33) (UniProt P01106).
In test [6] the target is biotinylated MYC(1-88 Y22A).

B1: PNUTS(1-148), PNUTS amino-terminal domain (PAD) (domain or fragment)
chain: MGSGPIDPKELLKGLDSFLNRDGEVKSVDGISKIFSLMKEARKMVSRCTYLNILLQTRSPEILVKFIDVGGYKLLNNWLTYSKTTNNIPLLQQILLTLQHLPLTVDHLKQNNTAKLVKQLSKSSEDEELRKLASVLVSDWMAVIRSQS
B1: the fold weakening of KD against wild-type MYC(1-88) in test [1], in test [3], in test [4] and in test [6] was over 5 fold in each case. Further, the values for the equilibrium dissociation constant (Kd) in test [2] and in test [5] were over 100 µM and 9.4 µM, respectively.
